According to PMC2873993, “Comparative Therapeutic Effects of Velaglucerase Alfa and Imiglucerase in a Gaucher Disease Mouse Model” (PLoS ONE, 2010):

Test: Tissue GCase activity, CRIM and CRIM-SA (liver, spleen, lung) after i.v. bolus
Details: for Recovery of injected activity in liver / Recovery of injected activity in lung / Recovery of injected activity in spleen: 60 U/kg bolus, % ± SE; for peak liver activity relative to WT: 20 min
[1] = 5-wk 9 V/null mice, peak 20 min
[2] = 5-wk 9 V/null mice, 60 U/kg i.v.
[3] = 20-wk 9 V/null mice, peak 20 min
[4] = 20-wk 9 V/null mice, 60 U/kg i.v.

B1: velaglucerase alfa (protein)
chain: ARPCIPKSFGYSSVVCVCNATYCDSFDPPTFPALGTFSRYESTRSGRRMELSMGPIQANHTGTGLLLTLQPEQKFQKVKGFGGAMTDAAALNILALSPPAQNLLLKSYFSEEGIGYNIIRVPMASCDFSIRTYTYADTPDDFQLHNFSLPEEDTKLKIPLIHRALQLAQRPVSLLASPWTSPTWLKTNGAVNGKGSLKGQPGDIYHQTWARYFVKFLDAYAEHKLQFWAVTAENEPSAGLLSGYPFQCLGFTPEHQRDFIARDLGPTLANSTHHNVRLLMLDDQRLLLPHWAKVVLTDPEAAKYVHGIAVHWYLDFLAPAKATLGETHRLFPNTMLFASEACVGSKFWEQSVRLGSWDRGMQYSHSIITNLLYHVVGWTDWNLALNPEGGPNWVRNFVDSPIIVDITKDTFYKQPMFYHLGHFSKFIPEGSQRVGLVASQKNDLDAVALMHPDGSAVVVVLNRSSKDVPLTIKDPAVGFLETISPGYSIHTYLWRRQ
modifications: N-linked oligosaccharides with higher α-mannosyl content (predominant number of mannoses is 9)
Recovery of injected activity in liver [1]: 57.53±1.35%
Recovery of injected activity in lung [1]: 0.1±0.01%
Recovery of injected activity in spleen (5-wk 9 V/null mice, peak 40 min): 1.86±0.06%
drop of liver activity within 40 min [2]: about 60%
liver GCase activity by 42 h [2]: 13–18 % of WT
peak spleen activity lower than in 20-wk mice [2]: 2- to 3 fold
splenic CRIM-SA [2]: 0.2–0.8×10^6 nmoles/h/mg enzyme protein
time liver activity remained at ≥WT level [2]: 70 to 80 min
t½ of CRIM levels in spleen [2]: ~2 h
t½ of activity disappearance in liver [2]: about 60 min
peak liver activity relative to WT [2]: ~2.5 fold
Recovery of injected activity in liver [3]: 60.36±2.01%
Recovery of injected activity in lung [3]: 0.04±0.01%
Recovery of injected activity in spleen [3]: 2.62±0.08%
decrease of liver GCase activity within 40 min [4]: ~30%
decrease of spleen enzyme activity by 40 min [4]: ~40%
liver GCase activity by 42 h [4]: 13–15 % of WT
time liver activity remained at or above WT levels [4]: 3 h
time spleen activity remained at ≥WT levels [4]: ~3.5 h
t½ of CRIM disappearance in liver [4]: 1.5 to 1.83 h
t½ of GCase activity disappearance in liver [4]: ~1.67 h
t½ of GCase protein disappearance in spleen [4]: 1.0 to 1.5 h
peak liver activity relative to WT [4]: 2.5- to 3.5 fold
peak spleen activity relative to WT (20-wk 9 V/null mice, 20 min post-injection, 60 U/kg i.v.): 3- to 4.5 fold
time liver activity remained at ≥WT level (20-wk 9 V/null mice, as restated): ~180 min
enzyme recovered in spleens and lungs (after bolus i.v. injections, abstract): < 5%
injected enzyme recovered from the liver (intravenous bolus, discussion): ≥ 60%
